This note sets out measurements from paper PMC3554691, “Systematic Functional Comparative Analysis of Four Single-Stranded DNA-Binding Proteins and Their Affection on Viral RNA Metabolism” (PLoS ONE, 2013).

For data set [1], the target named is SSB protein from Sulfolobus Solfataricus P2 (SSOB) (Sulfolobus Solfataricus P2) (UniProt Q97W73). In words: native gel or EMSA; 5 µg of ssob on non-denaturing gradient polyacrylamide gel, running buffer and gel at pH 7.4, poles reversed, Coomassie stained; self-association.
In data set [2] the target is T1, SSB protein from Thermococcus kodakarensis KOD1 (KOD) (Thermococcus kodakarensis KOD1).
T1 chain: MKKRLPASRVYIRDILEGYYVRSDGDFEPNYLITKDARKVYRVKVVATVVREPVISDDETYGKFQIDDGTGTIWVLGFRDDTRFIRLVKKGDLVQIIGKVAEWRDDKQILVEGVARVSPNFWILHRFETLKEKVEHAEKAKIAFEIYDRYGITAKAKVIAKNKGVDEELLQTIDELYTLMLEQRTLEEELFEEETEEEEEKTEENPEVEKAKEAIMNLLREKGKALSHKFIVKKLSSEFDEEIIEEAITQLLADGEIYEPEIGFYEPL
As to the kind of experiment: native gel or EMSA; 5 µg of SSB protein on 3.5–5–12% non-denaturing gradient polyacrylamide gel with NativeMarker, Coomassie stained; self-association. The following applies: both partners purified.

Data set [3] deals with the molecule itself. Described as above.

For “SSB protein from Sulfolobus Solfataricus P2 (SSOB) (from UniProt Q97W73 1-148) (natural protein)”, in data set [1], the stoichiometry N – broadly, a count of units in the complex or per binding partner – amounted to 4.

B1: SSB protein from Thermococcus kodakarensis KOD1 (KOD) (natural protein)
chain: T1 chain
modifications: N-terminal His tag left out. The locus TK1959 (RPA41, the 41 kDa replication factor A subunit) is inferred from the printed 356 residues and 41.6 kDa; it is not printed in the paper. / N-terminal His
Turning to B1, the “stoichiometry N” value in data set [2] stood at 2.

B2: SSB protein from Thermus thermophilus HB8 (TTH) (natural protein, UniProt Q5SLP9 1-263, looked up)
chain: MARGLNRVFLIGALATRPDMRYTPAGLAILDLTLAGQDLLLSDNGGEREVSWYHRVRLLGRQAEMWGDLLDQGQLVFVEGRLEYRQWEREGERRSELQIRADFLDPLDDRGKERAEDSRGQPRLRAALNQVFLMGNLTRDPELRYTPQGTAVARLGLAVNERRQGAEERTHFVEVQAWRDLAEWAAELRKGDGLFVIGRLVNDSWTSSSGERRFQTRVEALRLERPTRGPAQAGGSRSREVQTGGVDIDEGLEDFPPEEELPF
notes: printed length 263 residues, monomer 29.8 kDa; also called TTH SSB protein; source: E. coli BL21 (DE3), purified (70°C heat treatment, Ni2+ Sepharose, dialysis); not shown: His6, N-terminal, kept
Turning to B2, the “stoichiometry N” value in data set [3] turned out to be 2.
